# Data published in the nanobody polyreactivity screen of Harvey et al. (2022).
# Assay: yeast display, Sf9 membrane polyspecificity reagent, FACS + sequencing; frameworks hold sequencing errors
# How it was run: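 A nanobody's polyreactivity label depends on the gate it was sorted from. Yeast display cells were stained with 10% biotinylated, detergent-solubilized Sf9 membrane reagent for 1 hour at 4 °C, enriched on streptavidin microbeads and sorted by FACS. The low and high (top ~1%) gates were set on anti-HA fluorescence for expression and streptavidin fluorescence for reagent binding.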
row,Sequence,polyreactivity (PSR sort gate)
1,QVQLVESGAGLVQAGGSLRLSSAASGSIFEPNAMGWYRQAPGKERELVAAITSGGTTYADSVKGRFTISRDNAKNSVYFQMNSLKPEDSAVYYCAAYYIFVYYYPFDYWGQGTQVTVSS,low polyreactivity
2,QVQLVESGAGLVQAGGSLRLSWAASGSNYDIYAMGWYRQAPGKERELVAAITGSGGSTNYADSVKGRFTISRDNAKNTVYVQLNSLKPEDTAVYYCAAAGFDYPSDTYGYWGQGTQVTVSS,low polyreactivity
3,QVQLVESGAGLVQAGGSLSLSCAASGRIFDRYVMGWYRQAPGKERELVAAISDGGSTYYADSVKGRFTISRDNAKNTVYLQMNSLKPEDTAVYYCAAVRYNSRVSTTPSEMYYWGQGTQVTVSS,low polyreactivity
4,QVQLVESGAGLVQAGGSLSLSCAASVSILRFYAMGWYRQAPGKERELVAAISTRGGSTYYADSVKGRFTISRVNAKYTVYLQMNSLKPEDTAVYYCAKRWPQYTDYKPMYYWGQGTQLTVSS,high polyreactivity
5,QVQLVESGAGLVQAGGTLRLSCAASGRTRQYNDMGWYRQAPGKERELVAAMTWSGGLTYYADSVKGRFTISRDNAKNTVYLKMNCLKPEDTAVYYCAVDGGTPGALRRFNYWGQGTQVTVSS,high polyreactivity
6,QVQLVESGAGLVQAGVSLRLSCAASGRIFVVNAMGRYRHAPGKERELVAAISRGGSTNYADSVKGPFTISRDNAKNTVYLQMNSLKPEDTAVYYCNADGSSYWYPVPLDGGDYWGQGTLVTVSS,low polyreactivity
7,QVQLVESGAGLVQAPGSLRLSCAASGRTFPRNAMGRYRQAPGKERDLVATISLSGGSTYYADSVKGRFTISRDNAKNTVYLQMNSLKPEDSADYYCARTRNPWPTSFDYWGQGTQVTVSS,low polyreactivity
8,QVQLVESGAGLVQEGGRLRLRCAASGFTFMDNAMGCYRKAPGKETQLVAAISRSGGSTYYADSVKGRFTISRDNAKNTVYLQMKSLKPEDTEGFYCAAFLYRSQYSGFEYWGQGTQVTVSS,high polyreactivity
9,QVQLVESGAGLVQEGGSLRLSCAASGRTSGFNTMGRYRQAPGKETQLVAAISFSGGSTYYADSVKGRFTISRDNEKNTVYLQMNSLKPEDTEVYYCNALYRYLYRSGDYWGQGTQVSVSS,low polyreactivity
10,QVQLVESGAGLVQEGGSLRLSCAASGSIFQAYAMGWYRKAPGKERELVANISSGGSTNYADSVKGRFTISRDNAKNTVYLQMNSLKPEDTAVYYCAASRWIFVLTYEYDYWNRRDYWGQGTQVTVSS,low polyreactivity
11,QVQLVESGARLVQAGGSLRLSCAASGFIFRAYTMGWYRQAPGKERELVAAITSSGGRTYYADSVKGRFTISRDNAKNTVYLQMNSLKPEDTAVYYCATVDAKWKQFDYWGQGTQVTVSS,high polyreactivity
12,QVQLVESGARLVQAGGSLRLSCAASGLIFYGNAMGWYRQAPGKERELVAAISRRGGRTYYADSVKGRFTISRDNAENTVYLQKNSLKPEDTAVYYCAAQYSYPYYKVTLYYWGQGTQVTVSS,high polyreactivity
13,QVQLVESGEGLVQAGGSLRLSCAASGITFFRNTMGWYRHAPGKERELVAAISKSGDNTYYADSVKVRFTISRDNAKNTVYLQMNSLKPEDTAVYYCNKAYRKFYYGYDYWGQGTQVTVSS,high polyreactivity
14,QVQLVESGGAFVQAGGSLRLSCAASGIIFERNAMGWYRQAPGNERELVAAISGGGSTNYADSVKGRFTISRDNEMNTVYLQRISLKPDDTAVYYCAGKAARRRGYYYWGQGTQVTVSS,high polyreactivity
15,QVQLVESGGALVQAGGRLRLSCAASGSILVTNDMGLYRQAPGKDRELEAAICWSGGSTYYADSVKGRFTISRDNAKNSVYLQMNSLKPEDTAVYYCAAGLGFLFARQALEFDYWGQGTKVTVSS,low polyreactivity
16,QVQLVESGGALVQAGGRLRLSCAASGSTFTYNAMGWYRQAPGKERELVASISSGTTTYYADSVKGRFTISRDNAKNTVSLQMNSLKPEDTAVYDCAVDSWSRVQGWLAHNYDYWGQGTQVTVSS,low polyreactivity
17,QVQLVESGGALVQAGGSHRLSCAASGRIFAGNAMGWYRMAPGKEMELLAAISKSGGSTYYADSVKGRFTISRDNAKNTVYLQMNSLKAEDTAVSYCAKLYYPVSDQYDYYYWGPGTQVTVSS,low polyreactivity
18,QVQLVESGGALVQAGGSIRLSCAASGRIFLHYAMGWYRQAPGKERELVAAISSSGGSTYYADSVKGRFTISRDNAKNTVYLQMKSLKPEDTAVYYCAAAYPVKTTEGYYYWGQGTHVTVSS,high polyreactivity
19,QVQLVESGGALVQAGGSLRISCAASGLIITHYAMGWYRQAPGKEMELVAAISNGGSTNYADSEKGRFTISRDNAKNTVYLEMNSLKPEDTAVSFCNARPNKYYAYPATRGKYYYWGQATQVTVSS,low polyreactivity
20,QVQLVESGGALVQAGGSLRISCAASGLIIVRKAMGLYRQAPGKERELVAAIRWSGGSTYYADSVKGRFTISRDNGNNTVFLQMNRLKPEDTSVYYCAATGYGFDMDYWGQGTQVNVSS,low polyreactivity

row,Sequence,polyreactivity (PSR sort gate)
1,QVQLVESGGALVQAGGSLRISCAASGRTLSAYAMGLYRQAPGKERELVAVISRSGGRTYYADSVKGRFTISRDNAKNTVYLQMNSLKQEDSAVYYCAAGSSRLRALYNYWGQGTQVNVSS,high polyreactivity
2,QVQLVESGGALVQAGGSLRLSCAASAFIFRINAMGWYRQAPGKERELVAAISGSGGRTYYADSVKGRFTISRDNAKNTVYLQMNSLKPVDTAVYYCARSSGYGFNYWGQGTQVTVSS,high polyreactivity
3,QVQLVESGGALVQAGGSLRLSCAASAGNFTGYAMGWSRQAPGKERELVATITSGGSTNYADSVKGRFTISRDNAKNSFYFQLNSLKPEDTAVYYCALDYIGDTPIWQYDYWGQGTQVTVSS,low polyreactivity
4,QVQLVESGGALVQAGGSLRLSCAASGFIFHYYAMGWYRQAPGKERELVAAISKTGGSTYYADSVKGRFTISRDNAKNTVYLQMNSLKPEDTAVYYCAVARSAYYRGNHWGQGTQVTVSS,high polyreactivity
5,QVQLVESGGALVQAGGSLRLSCAASGGTFYTYAMGWYRQAPGKERELVATITRRGGSTYYADSVKGRFTISRDNAKNTVYLQMKSLKPEDTAVYYCAARSYISTRPIMGYWGQGTQVTVSS,high polyreactivity
6,QVQLVESGGALVQAGGSLRLSCAASGLTFIAYALGWYRQAPGKERELVASIDSGGGTNYADSVKGRFTISRDNAKNTVYLQMNSLKREDTAVYYCAAESPLYWVDDFESGWRYYYWGQGTHVTVSS,low polyreactivity
7,QVQLVESGGALVQAGGSLRLSCAASGNTFIPNAMGWYRQAPGKERELVAAIRASGGSTYYADSVKGRFTISRDNAKNTVYLQMNSLKPEDTAVYYCNADIWYKTYDYWGQGTQVTVSS,low polyreactivity
8,QVQLVESGGALVQAGGSLRLSCAASGRIFRAYAMGWYRQAPGKERELVAAISRSGGSTYYADSVKGRFTISRDNAKNTVYLQMNSLKPEDTAVYYCAAEYYFIDTGEYDYWGQGTQVSVSS,high polyreactivity
9,QVQLVESGGALVQAGGSLRLSCAASGRILRGNAMGWYRPAPGKERELVADINYSDGSTYYADSVKGRFTISRDNAKNTVYLQMNSLKPEDTAVYYCAKKNPLVFTSGMDYWGQGTQVTVSS,low polyreactivity
10,QVQLVESGGALVQAGGSLRLSCAASGRTFYFYTMGWYRQAPGKERDLVAAISWSGGSTYYADSVKGRFTISRDTAKNNFYLQMKRLKPEDTAVYYCAASSRWEQSKDQFYYWGQGTHVTVSS,low polyreactivity
11,QVQLVESGGALVQAGGSLRLSCAASGRTYRWYAMGWYRQAPGKESELVARIRGSGGSTYADSVKGRFTISRDNAKNTVNLEMNSLTPEDTAVYYCARKVTGRNGAQFYVSYYYWGQGTQVPVSS,low polyreactivity
12,QVQLVESGGALVQAGGSLRLSCAASGSIFDQYTMRWYRQAPGKDRELVAAIRFSGGSTSYADSVKGRFTISRDNAKNTVYLQMNSLKPDDTAVYYCNADSQPWRFGYWGQGTQVTVSS,low polyreactivity
13,QVQLVESGGALVQAGGSLRLSCAASGSIFYKYTMGWYRQAPGKERELVAAISRSGGSTYYADSVKGRFTISRDNAKNTVYLQMNSLKTEDTAVYYCATTGRVPGEYWGQGTQVTVSS,high polyreactivity
14,QVQLVESGGALVQAGGSLRLSCAASGSTFPTNAMGWYRQAPGKERELVAAITSSTGSTYYADSVKGRFTISRDNAKNTVYLQMNSLKPEDTAVYSCAKSKQWQRYLRGNYWGQGTQVTVSS,low polyreactivity
15,QVQLVESGGALVQAGGSLRLSCAASGSTFSWYAMGWYRQAPGKERELVAAITTRGGSTYYADSVKGRFTISRDNAKNTVYLQMTRLKPEDTAVYYCAADDGWDFGRGRYDYWGQGTQVTVSS,low polyreactivity
16,QVQLVESGGALVQAGGSLRLSCAASGSTFVTYAMGWYRQAPGKEREFVAAISWRGGRTYYADSVKGRFSISRDNAKNTVYLQMNSLKPEDTAVYYCAVRTLQRGKHDLGVDYWGQGTQVTVSS,high polyreactivity
17,QVQLVESGGALVQAGGSLRLSCAASGSTFYYYAMGWYRQAPGKEREFVAAISGGDGTTSYADSVKGRFTISRDNAKKTVYLQMNSLKPEDTAFYYCASPYTSYLYGYDYWGQGTQVTVSS,low polyreactivity
18,QVQLVESGGALVQAGGSLRLSCAASGSTLVTNAMGWYRKAPGKERELVAAITFSGGTTYYADSVKGRFTISRDNAKNTVYLQMNSLTPEDTAVYYCGAEIWLEYVGYDYWGQGTQVTVSS,high polyreactivity
19,QVQLVESGGALVQAGGSLRLSCAASGYIFDRYAMGWYRQAPGKEWELVAAISGRGGSTYYADSVKGRFTISRDNAKNTVYLQMNSLKPEDTAVYYCAAARSWHLYHRYDYWGQGTQVTVSS,high polyreactivity
20,QVQLVESGGALVQAGGSLRLSCSASGSLFIYYAIRWYRQAPGKERELVAAISISGARTYYADSVKGRFTNSRDNAKNTVYLQMNSLKPEDTAVYYCNVSSRRLRGLDYWGQVTQVTVSS,low polyreactivity
